Among the data in US20040018971A1 (published 2004) are relative binding ratio values, retold here.

The labels stand for the following.
B1: HER2/neu peptide, position 415, 10 amino acids (peptide)
peptide: WPDSLPDLSV
notes: also called Her2/neu.415
B2: HER2/neu peptide, position 415, 8 amino acids (peptide)
peptide: WPDSLPDL
notes: also called Her2/neu.415
B3: HER2/neu peptide, position 94, 9 amino acids (peptide)
peptide: VPLQRLRIV
notes: also called Her2/neu.94
B4: HER2/neu peptide, position 926, 10 amino acids (peptide)
peptide: IPAREIPDLL
B5: HER2/neu peptide, position 377, 10 amino acids (peptide)
peptide: LPESFDGDPA
B6: HER2/neu peptide, position 926, 9 amino acids (peptide)
peptide: IPAREIPDL
B7: HER2/neu peptide, position 1034, 10 amino acids (peptide)
peptide: DPAPGAGGMV
B8: HER2/neu peptide, position 65, 10 amino acids (peptide)
peptide: LPTNASLSFL
notes: also called Her2/neu.65
B9: HER2/neu peptide, position 1129, 11 amino acids (peptide)
peptide: APLTCSPQPEY
B10: HER2/neu peptide, position 605, 10 amino acids (peptide)
peptide: KPDLSYMPIW
B11: HER2/neu peptide, position 1032, 8 amino acids (peptide)
peptide: CPDPAPGA
B12: HER2/neu peptide, position 1101, 9 amino acids (peptide)
peptide: LPTHDPSPL
B13: HER2/neu peptide, position 336, 10 amino acids (peptide)
peptide: KPCARVCYGL
notes: also called Her2/neu.336
B14: HER2/neu peptide, position 1157, 9 amino acids (peptide)
peptide: LPAARPAGA
B15: HER2/neu peptide, position 315, 10 amino acids (peptide)
peptide: CPLHNQEVTA
B16: HER2/neu peptide, position 315, 8 amino acids (peptide)
peptide: CPLHNQEV
B17: HER2/neu peptide, position 1155, 11 amino acids (peptide)
peptide: GPLPAARPAGA
B18: HER2/neu peptide, position 35, 9 amino acids (peptide)
peptide: LPASPETHL
B19: HER2/neu peptide, position 1034, 9 amino acids (peptide)
peptide: DPAPGAGGM
B20: HER2/neu peptide, position 390, 11 amino acids (peptide)
peptide: APLQPEQLQVF
B21: HER2/neu peptide, position 299, 10 amino acids (peptide)
peptide: CPYNYLSTDV
B22: HER2/neu peptide, position 1157, 11 amino acids (peptide)
peptide: LPAARPAGATL
B23: HER2/neu peptide, position 564, 11 amino acids (peptide)
peptide: HPECQPQNGSV
B24: HER2/neu peptide, position 1120, 10 amino acids (peptide)
peptide: LPSETDGYVA
B25: HER2/neu peptide, position 524, 11 amino acids (peptide)
peptide: GPTQCVNCSQF
B26: HER2/neu peptide, position 698, 9 amino acids (peptide)
peptide: EPLTPSGAM
B27: HER2/neu peptide, position 336, 8 amino acids (peptide)
peptide: KPCARVCY
B28: HER2/neu peptide, position 231, 11 amino acids (peptide)
peptide: LPTDCCHEQCA
B29: HER2/neu peptide, position 246, 11 amino acids (peptide)
peptide: GPKHSDCLACL
B30: HER2/neu peptide, position 578, 8 amino acids (peptide)
peptide: GPEADQCV
B31: HER2/neu peptide, position 121, 9 amino acids (peptide)
peptide: DPLNNTTPV
B32: HER2/neu peptide, position 35, 11 amino acids (peptide)
peptide: LPASPETHLDM
B33: HER2/neu peptide, position 1120, 8 amino acids (peptide)
peptide: LPSETDGY
B34: HER2/neu peptide, position 1204, 9 amino acids (peptide)
peptide: APQPHPPPA
B35: HER2/neu peptide, position 740, 11 amino acids (peptide)
peptide: IPDGENVKIPV
B36: HER2/neu peptide, position 522, 8 amino acids (peptide)
peptide: GPGPTQCV
B37: HER2/neu peptide, position 626, 10 amino acids (peptide)
peptide: CPINCTHSCV
B38: HER2/neu peptide, position 1204, 10 amino acids (peptide)
peptide: APQPHPPPAF
B39: HER2/neu peptide, position 748, 8 amino acids (peptide)
peptide: IPVAIKVL
B40: HER2/neu peptide, position 390, 10 amino acids (peptide)
peptide: APLQPEQLQV
B41: HER2/neu peptide, position 419, 10 amino acids (peptide)
peptide: LPDLSVFQNL
B42: HER2/neu peptide, position 1036, 8 amino acids (peptide)
peptide: APGAGGMV
B43: HER2/neu peptide, position 698, 8 amino acids (peptide)
peptide: EPLTPSGA
B44: HER2/neu peptide, position 605, 9 amino acids (peptide)
peptide: KPDLSYMPI
notes: also called Her2/neu.605
B45: HER2/neu peptide, position 1208, 10 amino acids (peptide)
peptide: HPPPAFSPAF
B46: HER2/neu peptide, position 740, 9 amino acids (peptide)
peptide: IPDGENVKI
B47: HER2/neu peptide, position 995, 10 amino acids (peptide)
peptide: GPASPLDSTF
B48: HER2/neu peptide, position 642, 10 amino acids (peptide)
peptide: CPAEQRASPL
notes: also called Her2/neu.642
B49: HER2/neu peptide, position 931, 11 amino acids (peptide)
peptide: IPDLLEKGERL
B50: HER2/neu peptide, position 384, 9 amino acids (peptide)
peptide: DPASNTAPL
B51: HER2/neu peptide, position 578, 9 amino acids (peptide)
peptide: GPEADQCVA
B52: HER2/neu peptide, position 578, 11 amino acids (peptide)
peptide: GPEADQCVACA
B53: HER2/neu peptide, position 1208, 9 amino acids (peptide)
peptide: HPPPAFSPA
B54: HER2/neu peptide, position 1076, 10 amino acids (peptide)
peptide: APSEGAGSDV
B55: HER2/neu peptide, position 1076, 11 amino acids (peptide)
peptide: APSEGAGSDVF
B56: HER2/neu peptide, position 1105, 8 amino acids (peptide)
peptide: DPSPLQRY
B57: HER2/neu peptide, position 982, 8 amino acids (peptide)
peptide: DPQRFVVI
B58: HER2/neu peptide, position 246, 8 amino acids (peptide)
peptide: GPKHSDCL
B59: HER2/neu peptide, position 921, 11 amino acids (peptide)
peptide: KPYDGIPAREI
B60: HER2/neu peptide, position 1120, 9 amino acids (peptide)
peptide: LPSETDGYV
B61: HER2/neu peptide, position 1032, 11 amino acids (peptide)
peptide: CPDPAPGAGGM
B62: HER2/neu peptide, position 550, 8 amino acids (peptide)
peptide: LPREYVNA
B63: HER2/neu peptide, position 600, 11 amino acids (peptide)
peptide: CPSGVKPDLSY
notes: also called Her2/neu.600
B64: HER2/neu peptide, position 995, 11 amino acids (peptide)
peptide: GPASPLDSTFY
B65: HER2/neu peptide, position 1155, 9 amino acids (peptide)
peptide: GPLPAARPA
B66: HER2/neu peptide, position 390, 8 amino acids (peptide)
peptide: APLQPEQL
B67: HER2/neu peptide, position 600, 9 amino acids (peptide)
peptide: CPSGVKPDL
B68: HER2/neu peptide, position 16, 10 amino acids (peptide)
peptide: LPPGAASTQV

Some results are limits rather than exact numbers.

The first test addresses T1, HLA-B*0702 (human).
T1 construct: also called B7 supertype prototype molecule
In words: inhibition of 125I standard peptide binding to purified HLA.
Regarding B1, the relative binding ratio is 0.0044 ratio to standard peptide. For the molecule B2, the relative binding ratio was 0.02 ratio to standard peptide. In the case of B3, the relative binding ratio is 0.0077 ratio to standard peptide.

The next test addresses HLA-B*0702 (human). Nature of the test: competition with 125I-labelled probe peptide for purified HLA, gel filtration.
As for B4, the relative binding ratio is 0.0004 ratio (IC50 of standard / IC50 of test peptide). For B5, the relative binding ratio was 0.0001 ratio (IC50 of standard / IC50 of test peptide). Turning to B6, the relative binding ratio is 0.0006 ratio (IC50 of standard / IC50 of test peptide).

Take B7: the relative binding ratio is 0.0002 ratio (IC50 of standard / IC50 of test peptide). B8: the relative binding ratio was 0.019 ratio (IC50 of standard / IC50 of test peptide). The same measure, in the same setting: next, B9: < 0.0002 ratio (IC50 of standard / IC50 of test peptide). Take B10: the relative binding ratio is 0.0001 ratio (IC50 of standard / IC50 of test peptide). Turning to B11, the relative binding ratio was < 0.0002 ratio (IC50 of standard / IC50 of test peptide).

As to B12, the relative binding ratio is 0.046 ratio (IC50 of standard / IC50 of test peptide). For B13, the relative binding ratio is 0.037 ratio (IC50 of standard / IC50 of test peptide). Take B14: the relative binding ratio was 0.0027 ratio (IC50 of standard / IC50 of test peptide). As for B15, the relative binding ratio was 0.0001 ratio (IC50 of standard / IC50 of test peptide). For B16, the relative binding ratio was < 0.0006 ratio (IC50 of standard / IC50 of test peptide). For B17, the relative binding ratio is 0.016 ratio (IC50 of standard / IC50 of test peptide). B18: the relative binding ratio was 0.0002 ratio (IC50 of standard / IC50 of test peptide). Consider B19, for which the relative binding ratio is 0.0001 ratio (IC50 of standard / IC50 of test peptide).

With B20, the relative binding ratio is 0.0011 ratio (IC50 of standard / IC50 of test peptide). Consider B21, for which the relative binding ratio was 0.0016 ratio (IC50 of standard / IC50 of test peptide). For B22, the relative binding ratio was 0.014 ratio (IC50 of standard / IC50 of test peptide). Consider B23, for which the relative binding ratio was < 0.0002 ratio (IC50 of standard / IC50 of test peptide). For the molecule B24, the relative binding ratio was 0.0001 ratio (IC50 of standard / IC50 of test peptide). On to B25, for which the relative binding ratio was 0.0005 ratio (IC50 of standard / IC50 of test peptide). Regarding B26, the relative binding ratio is 0.011 ratio (IC50 of standard / IC50 of test peptide). In the case of B27, the relative binding ratio is < 0.0006 ratio (IC50 of standard / IC50 of test peptide).

With B28, the relative binding ratio was < 0.0003 ratio (IC50 of standard / IC50 of test peptide). Same read-out and setting: next, B29: 0.0006 ratio (IC50 of standard / IC50 of test peptide); B30: < 0.0006 ratio (IC50 of standard / IC50 of test peptide); B31: 0.0002 ratio (IC50 of standard / IC50 of test peptide). For B32, the relative binding ratio is < 0.0002 ratio (IC50 of standard / IC50 of test peptide).

On to B33, for which the relative binding ratio is < 0.0006 ratio (IC50 of standard / IC50 of test peptide). Still for that read-out and setting: the same measure for B34: 0.0056 ratio (IC50 of standard / IC50 of test peptide). Consider B35, for which the relative binding ratio was 0.0023 ratio (IC50 of standard / IC50 of test peptide). For B36, the relative binding ratio is < 0.0006 ratio (IC50 of standard / IC50 of test peptide).

Turning to B37, the relative binding ratio was 0.0002 ratio (IC50 of standard / IC50 of test peptide).

For the molecule B38, the relative binding ratio is 0.053 ratio (IC50 of standard / IC50 of test peptide). In the case of B39, the relative binding ratio is 0.012 ratio (IC50 of standard / IC50 of test peptide). As for B40, the relative binding ratio was 0.0001 ratio (IC50 of standard / IC50 of test peptide). On to B41, for which the relative binding ratio is 0.0003 ratio (IC50 of standard / IC50 of test peptide). As to B42, the relative binding ratio was 0.0063 ratio (IC50 of standard / IC50 of test peptide). As to B43, the relative binding ratio is < 0.0002 ratio (IC50 of standard / IC50 of test peptide). With B44, the relative binding ratio is 0.072 ratio (IC50 of standard / IC50 of test peptide).

On to B45, for which the relative binding ratio was 0.0018 ratio (IC50 of standard / IC50 of test peptide).

For the molecule B46, the relative binding ratio was 0.0001 ratio (IC50 of standard / IC50 of test peptide). As for B47, the relative binding ratio was 0.051 ratio (IC50 of standard / IC50 of test peptide).

With B48, the relative binding ratio was 0.15 ratio (IC50 of standard / IC50 of test peptide). Same read-out and setting: the same measure for B49: < 0.0002 ratio (IC50 of standard / IC50 of test peptide); for B50: 0.0004 ratio (IC50 of standard / IC50 of test peptide). Still for that read-out and setting: next, B51: 0.0001 ratio (IC50 of standard / IC50 of test peptide). Regarding B52, the relative binding ratio is < 0.0003 ratio (IC50 of standard / IC50 of test peptide).

With B53, the relative binding ratio was 0.0093 ratio (IC50 of standard / IC50 of test peptide). In the case of B54, the relative binding ratio was 0.0002 ratio (IC50 of standard / IC50 of test peptide). On the same count and under the same terms, the same measure for B55: 0.0006 ratio (IC50 of standard / IC50 of test peptide); for B56: < 0.0006 ratio (IC50 of standard / IC50 of test peptide); for B57: < 0.0006 ratio (IC50 of standard / IC50 of test peptide). B58: the relative binding ratio is 0.0092 ratio (IC50 of standard / IC50 of test peptide). For B59, the relative binding ratio is 0.043 ratio (IC50 of standard / IC50 of test peptide).

For the molecule B60, the relative binding ratio is 0.0002 ratio (IC50 of standard / IC50 of test peptide).

Turning to B61, the relative binding ratio is < 0.0002 ratio (IC50 of standard / IC50 of test peptide). In the case of B62, the relative binding ratio was 0.0012 ratio (IC50 of standard / IC50 of test peptide). Still for that read-out and setting: next, B63: 0.03 ratio (IC50 of standard / IC50 of test peptide); B64: 0.0036 ratio (IC50 of standard / IC50 of test peptide); B65: 0.09 ratio (IC50 of standard / IC50 of test peptide). The same measure, in the same setting: the same measure for B66: < 0.0006 ratio (IC50 of standard / IC50 of test peptide).

With B67, the relative binding ratio is 0.014 ratio (IC50 of standard / IC50 of test peptide). In the case of B68, the relative binding ratio is 0.0002 ratio (IC50 of standard / IC50 of test peptide).
